Reference: publication PMC6265484, “Homodimerization regulates an endothelial specific signature of the SOX18 transcription factor” (Nucleic Acids Research, 2018)

Key:
Assay in all cases: single-molecule two-colour coincidence fluorescence spectroscopy; GFP- and Cherry-tagged proteins made in LTE, diluted to about 100 pM, confocal detection with 488 and 561 nm lasers, room temperature; coincidence ratio C = mCherry/(GFP + mCherry)
human MEF2C = human MEF2C (human, UniProt Q06413 1-473); conditions: partners not purified
human MEF2C, sequence (Q06413 whole entry): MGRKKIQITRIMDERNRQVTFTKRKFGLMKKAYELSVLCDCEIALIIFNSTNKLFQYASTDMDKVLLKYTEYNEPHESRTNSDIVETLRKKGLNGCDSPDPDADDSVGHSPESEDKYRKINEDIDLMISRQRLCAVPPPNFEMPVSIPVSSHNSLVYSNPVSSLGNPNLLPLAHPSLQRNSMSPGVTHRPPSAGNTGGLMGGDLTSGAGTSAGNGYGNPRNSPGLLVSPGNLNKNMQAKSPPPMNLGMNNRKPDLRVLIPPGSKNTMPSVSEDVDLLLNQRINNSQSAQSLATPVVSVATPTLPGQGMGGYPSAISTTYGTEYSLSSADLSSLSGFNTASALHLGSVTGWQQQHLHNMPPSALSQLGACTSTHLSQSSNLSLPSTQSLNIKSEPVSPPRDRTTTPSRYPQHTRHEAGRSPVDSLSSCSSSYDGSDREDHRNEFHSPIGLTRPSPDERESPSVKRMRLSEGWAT

human RBPJ = human RBPJ (human, UniProt Q06330 1-500); conditions: partners not purified
human RBPJ, sequence (Q06330 whole entry): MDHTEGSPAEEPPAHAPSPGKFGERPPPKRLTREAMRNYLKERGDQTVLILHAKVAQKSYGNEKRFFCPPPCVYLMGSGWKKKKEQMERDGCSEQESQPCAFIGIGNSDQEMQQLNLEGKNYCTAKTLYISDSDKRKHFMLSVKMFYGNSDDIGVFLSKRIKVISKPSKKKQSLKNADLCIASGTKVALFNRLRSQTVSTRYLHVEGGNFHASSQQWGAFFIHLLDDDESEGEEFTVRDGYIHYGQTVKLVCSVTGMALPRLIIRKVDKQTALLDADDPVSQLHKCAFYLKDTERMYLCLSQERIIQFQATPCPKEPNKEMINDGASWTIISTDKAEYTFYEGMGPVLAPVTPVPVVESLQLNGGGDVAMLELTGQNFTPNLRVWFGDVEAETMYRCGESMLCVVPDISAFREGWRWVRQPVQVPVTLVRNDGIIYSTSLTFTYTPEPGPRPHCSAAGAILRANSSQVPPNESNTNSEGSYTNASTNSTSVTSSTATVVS

RXRA = target: T1, RXRA (UniProt P19793 1-462); conditions: partners not purified
T1 sequence (looked up): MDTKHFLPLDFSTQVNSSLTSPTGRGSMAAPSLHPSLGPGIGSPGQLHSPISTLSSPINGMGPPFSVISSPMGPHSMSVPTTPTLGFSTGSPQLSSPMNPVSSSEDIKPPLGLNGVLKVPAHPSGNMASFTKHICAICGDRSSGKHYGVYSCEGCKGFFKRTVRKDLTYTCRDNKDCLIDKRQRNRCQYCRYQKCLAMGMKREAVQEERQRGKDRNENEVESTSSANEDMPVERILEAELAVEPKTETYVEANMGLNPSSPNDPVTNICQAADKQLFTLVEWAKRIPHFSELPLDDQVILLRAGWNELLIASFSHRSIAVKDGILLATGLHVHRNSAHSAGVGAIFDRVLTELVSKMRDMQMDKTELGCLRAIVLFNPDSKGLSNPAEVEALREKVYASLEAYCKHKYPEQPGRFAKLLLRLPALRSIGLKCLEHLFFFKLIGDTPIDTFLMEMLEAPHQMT

[1] = target: the molecule itself

B1: full-length human SOX18 (natural protein, UniProt P35713 1-384, looked up)
chain: MQRSPPGYGAQDDPPARRDCAWAPGHGAAADTRGLAAGPAALAAPAAPASPPSPQRSPPRSPEPGRYGLSPAGRGERQAADESRIRRPMNAFMVWAKDERKRLAQQNPDLHNAVLSKMLGKAWKELNAAEKRPFVEEAERLRVQHLRDHPNYKYRPRRKKQARKARRLEPGLLLPGLAPPQPPPEPFPAASGSARAFRELPPLGAEFDGLGLPTPERSPLDGLEPGEAAFFPPPAAPEDCALRPFRAPYAPTELSRDPGGCYGAPLAEALRTAPPAAPLAGLYYGTLGTPGPYPGPLSPPPEAPPLESAEPLGPAADLWADVDLTEFDQYLNCSRTRPDAPGLPYHVALAKLGPRAMSCPEESSLISALSDASSAVYYSACISG
- stoichiometry N (human MEF2C): 2
- stoichiometry N (human RBPJ): 2
- stoichiometry N (RXRA): 1
- stoichiometry N [1]: 2
